From PMC5376495 (ACS combinatorial science, 2017)
Each block holds one binder with its values, some of them ahead of it. Where no end group is shown, it is not given here. [ ]: non-standard residue; d: D form. Lys(Me3) = C[N+](C)(C)CCCC[C@H](N)C(=O)O

Target: His-tagged EED (His6X-EED), full length (UniProt O75530 1-441)
Experiment: ITC

Chain of His-tagged EED (His6X-EED), full length (O75530 whole entry): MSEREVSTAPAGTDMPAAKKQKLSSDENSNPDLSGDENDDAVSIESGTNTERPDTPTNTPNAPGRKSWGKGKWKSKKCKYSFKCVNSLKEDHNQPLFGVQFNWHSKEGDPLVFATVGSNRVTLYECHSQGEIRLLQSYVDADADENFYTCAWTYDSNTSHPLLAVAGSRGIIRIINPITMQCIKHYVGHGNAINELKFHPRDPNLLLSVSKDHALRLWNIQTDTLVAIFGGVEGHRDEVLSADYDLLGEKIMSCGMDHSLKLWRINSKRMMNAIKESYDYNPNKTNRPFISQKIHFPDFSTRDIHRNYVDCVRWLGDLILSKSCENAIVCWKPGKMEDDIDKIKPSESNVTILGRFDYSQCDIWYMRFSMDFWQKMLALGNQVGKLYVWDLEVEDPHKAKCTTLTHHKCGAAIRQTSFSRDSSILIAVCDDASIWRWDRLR

- Kd: 8.82 ± 2.06 µM
Binder: QR[Lys(Me3)]FA (peptide, UniProt Q92833 114-118, looked up) [Jarid2_(114–118)K116me3]

- Kd: 1.14 ± 0.14 µM
B1: UNC5115 (peptide)
chain: XKF
modifications: N-terminal (2S,3aS,7aS)-octahydro-1H-indole cap; methyl-isopropyl lysine (Kme,iPr); C-terminal piperidinyl ring in place of leucine
